What was measured:
[1] = molecular target: T1, human sodium-dependent phosphate transporter 2B (NaPi2b) (human, UniProt O95436 1-690); test: flow cytometry on HEK293-6e cells transiently transfected with human NaPi2b, antibody 18-24 h at 4 C, anti-human IgG Fc AF647
T1 construct: UniProt ID is given as 095436 [sic]; also called hNaPi2b; Hu NaPi2b
T1 sequence: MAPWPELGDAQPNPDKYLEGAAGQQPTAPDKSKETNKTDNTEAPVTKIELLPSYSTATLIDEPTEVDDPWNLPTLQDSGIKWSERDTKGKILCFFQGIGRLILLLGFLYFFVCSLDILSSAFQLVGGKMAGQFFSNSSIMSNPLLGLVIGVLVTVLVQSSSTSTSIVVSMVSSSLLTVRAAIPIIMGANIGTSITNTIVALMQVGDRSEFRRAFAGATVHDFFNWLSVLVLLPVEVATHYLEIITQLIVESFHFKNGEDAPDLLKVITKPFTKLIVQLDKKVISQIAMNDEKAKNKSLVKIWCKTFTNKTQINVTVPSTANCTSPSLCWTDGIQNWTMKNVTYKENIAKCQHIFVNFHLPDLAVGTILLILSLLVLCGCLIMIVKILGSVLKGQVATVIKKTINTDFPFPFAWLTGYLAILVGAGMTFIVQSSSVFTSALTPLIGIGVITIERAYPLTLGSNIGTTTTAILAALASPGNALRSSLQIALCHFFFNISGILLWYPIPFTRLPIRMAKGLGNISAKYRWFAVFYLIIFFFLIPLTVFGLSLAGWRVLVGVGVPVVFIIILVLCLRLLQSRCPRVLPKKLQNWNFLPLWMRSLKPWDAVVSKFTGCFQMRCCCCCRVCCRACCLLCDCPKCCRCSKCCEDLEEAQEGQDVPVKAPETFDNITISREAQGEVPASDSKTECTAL
Experimental: (§1) Briefly, HEK293-6e cells were transfected for ~24 hours to transiently express human NaPi2b, cynomolgus or mouse NaPi2b, at 1 μg of DNA per 1 million cells. Following transfection, 50,000 cells per well were seeded in V-bottom 96-well plates and incubated with 200 nM of primary antibody for 18-24 hours at 4° C. to prevent internalization. […] Following staining and washing, fluorescence was detected by flow cytometry on BD LSRFortessa™ Cell Analyzer (BD Biosciences, Franklin Lake, NJ) with 10,000 minimum events collected per well. The AF647/APC-A GeoMean (fluorescence signal geometric mean, proportional to anti-Human AF647 binding) was calculated for the live singlet cell population for each primary antibody using FlowJo™ v8 software (BD Biosciences, Franklin Lake, NJ). The Bmax and Kd of each primary antibody were calculated using GraphPad Prism Version 9 (GraphPad Software, San Diego, CA)

mouse NaPi2b = molecular target: T2, mouse NaPi2b (mouse, UniProt Q9DBP0 1-697); test: flow cytometry on HEK293-6e cells transfected with mouse NaPi2b, 24 h at 4 C, anti-human IgG Fc AF647
T2 construct: also called Ms NaPi2b; CL #13476
T2 sequence: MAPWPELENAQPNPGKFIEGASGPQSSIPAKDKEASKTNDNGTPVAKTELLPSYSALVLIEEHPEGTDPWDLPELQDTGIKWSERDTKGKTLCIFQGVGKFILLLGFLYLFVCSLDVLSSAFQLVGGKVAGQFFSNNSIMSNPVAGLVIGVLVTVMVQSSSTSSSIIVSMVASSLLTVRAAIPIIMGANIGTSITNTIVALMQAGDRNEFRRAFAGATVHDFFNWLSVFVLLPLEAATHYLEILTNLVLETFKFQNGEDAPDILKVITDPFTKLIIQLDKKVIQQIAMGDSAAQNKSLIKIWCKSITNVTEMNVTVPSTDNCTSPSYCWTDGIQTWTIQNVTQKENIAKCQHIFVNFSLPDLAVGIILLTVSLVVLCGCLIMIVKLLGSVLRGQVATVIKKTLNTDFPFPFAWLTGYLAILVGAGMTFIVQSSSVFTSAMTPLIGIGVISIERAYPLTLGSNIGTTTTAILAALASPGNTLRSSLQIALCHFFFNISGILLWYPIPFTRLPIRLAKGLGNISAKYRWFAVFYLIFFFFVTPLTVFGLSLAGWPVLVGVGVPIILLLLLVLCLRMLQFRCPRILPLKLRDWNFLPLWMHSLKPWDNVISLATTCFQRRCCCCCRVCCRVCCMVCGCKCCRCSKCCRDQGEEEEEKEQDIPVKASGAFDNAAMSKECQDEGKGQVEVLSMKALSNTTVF
Experimental: (§2) Following transfection, cells were seeded at 50,000 cells/well in conical-bottom 96-well plates and treated with test antibody or antibody-drug conjugate for 24 hours at 4° C. to prevent internalization. […] Following incubation and washing, fluorescence was detected by flow cytometry on a BD LSRFortessa™ Cell Analyzer (BD Biosciences, Franklin Lake, NJ) with 1,000 minimum events collected per well.

cynomolgus monkey NaPi2b = molecular target: T3, cynomolgus monkey NaPi2b (cynomolgus monkey, UniProt O95436 1-690 (human entry)); test: flow cytometry on HEK293-6e cells transfected with cynomolgus monkey NaPi2b, 24 h at 4 C, anti-human IgG Fc AF647
T3 construct: also called Cyno NaPi2b; Cy NaPi2b
T3 chain: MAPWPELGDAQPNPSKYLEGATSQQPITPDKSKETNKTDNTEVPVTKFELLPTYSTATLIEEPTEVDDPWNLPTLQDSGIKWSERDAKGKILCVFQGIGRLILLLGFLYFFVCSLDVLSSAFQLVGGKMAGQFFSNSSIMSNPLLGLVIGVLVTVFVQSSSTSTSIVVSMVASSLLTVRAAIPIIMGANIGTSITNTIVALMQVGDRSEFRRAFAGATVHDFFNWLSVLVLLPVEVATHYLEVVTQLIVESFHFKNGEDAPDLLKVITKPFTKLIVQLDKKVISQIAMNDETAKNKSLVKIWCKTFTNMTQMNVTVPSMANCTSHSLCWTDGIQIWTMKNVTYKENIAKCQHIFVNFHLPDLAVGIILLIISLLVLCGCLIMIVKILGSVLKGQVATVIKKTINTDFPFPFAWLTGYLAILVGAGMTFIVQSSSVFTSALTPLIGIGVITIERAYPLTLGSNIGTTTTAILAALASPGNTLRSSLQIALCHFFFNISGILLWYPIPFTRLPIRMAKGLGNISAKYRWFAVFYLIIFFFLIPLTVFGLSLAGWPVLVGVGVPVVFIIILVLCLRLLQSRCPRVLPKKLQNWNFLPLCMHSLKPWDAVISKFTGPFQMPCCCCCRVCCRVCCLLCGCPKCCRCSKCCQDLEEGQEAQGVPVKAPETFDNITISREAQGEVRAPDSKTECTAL
Experimental: as §2

[2] = molecular target: T1, human sodium-dependent phosphate …; test: flow cytometry, HEK293-6e cells transfected with human NaPi2b; apparent Kd
Experimental: as §1

Binder	EC50 (read off the curve) (cynomolgus monkey NaPi2b) [nM]	Kd [2] [nM]	further results
v22277 (palivizumab, anti-RSV negative control, heterodimeric Fc) (antibody, human IgG1, kappa, also called neg control) heavy 1: GQVTLRESGPALVKPTQTLTLTCTFSGFSLSTSGMSVGWIRQPPGKALEWLADIWWDDKKDYNPSLKSRLTISKDTSKNQVVLKVTNMDPADTATYYCARSMITNWYFDVWGAGTTVTVSSASTKGPSVFPLAPSSKSTSGGTAALGCLVKDYFPEPVTVSWNSGALTSGVHTFPAVLQSSGLYSLSSVVTVPSSSLGTQTYICNVNHKPSNTKVDKKVEPKSCDKTHTCPPCPAPELLGGPSVFLFPPKPKDTLMISRTPEVTCVVVDVSHEDPEVKFNWYVDGVEVHNAKTKPREEQYNSTYRVVSVLTVLHQDWLNGKEYKCKVSNKALPAPIEKTISKAKGQPREPQVYVYPPSRDELTKNQVSLTCLVKGFYPSDIAVEWESNGQPENNYKTTPPVLDSDGSFALVSKLTVDKSRWQQGNVFSCSVMHEALHNHYTQKSLSLSPG heavy 2: not shown light: GDIQMTQSPSTLSASVGDRVTITCKSQLSVGYMHWYQQKPGKAPKLLIYDTSKLASGVPSRFSGSGSGTEFTLTISSLQPDDFATYYCFQGSGYPFTFGGGTKLEIKRTVAAPSVFIFPPSDEQLKSGTASVVCLLNNFYPREAKVQWKVDNALQSGNSQESVTEQDSKDSTYSLSSTLTLSKADYEKHKVYACEVTHQGLSSPVTKSFNRGEC			binding result [1]: no binding (tested: 200 nM); binding result (mouse NaPi2b): no binding (tested: 200 nM)
v38591 (humanized anti-NaPi2b antibody, wild-type Fc) (antibody, human IgG1, kappa, also called v38591 Wild-type; H1L2) heavy: not shown light: DVQMTQSPSSLSASVGDRVTITCRASQDVYSYLNWYQQKPGKAVKLLIYYTSRLQSGVPSRFSGSGSGTDYTLTISSLQPEDFATYYCQQYNIFPWTFGQGTKLEIKRTVAAPSVFIFPPSDEQLKSGTASVVCLLNNFYPREAKVQWKVDNALQSGNSQESVTEQDSKDSTYSLSSTLTLSKADYEKHKVYACEVTHQGLSSPVTKSFNRGEC	~0.3		EC50 (read off the curve) (mouse NaPi2b): ~0.3 nM
v18992 (MX35), reference anti-NaPi2b antibody (antibody, human IgG1, kappa) heavy 1: GQVQLVQSGAEVVKPGASVKMSCKASGYTFTGYNIHWVKQAPGQGLEWIGAIYPGNGDTSYKQKFRGRATLTADTSTSTVYMELSSLRSEDSAVYYCARGETARATFAYWGQGTLVTVSSASTKGPSVFPLAPSSKSTSGGTAALGCLVKDYFPEPVTVSWNSGALTSGVHTFPAVLQSSGLYSLSSVVTVPSSSLGTQTYICNVNHKPSNTKVDKKVEPKSCDKTHTCPPCPAPELLGGPSVFLFPPKPKDTLMISRTPEVTCVVVDVSHEDPEVKFNWYVDGVEVHNAKTKPREEQYNSTYRVVSVLTVLHQDWLNGKEYKCKVSNKALPAPIEKTISKAKGQPREPQVYVYPPSRDELTKNQVSLTCLVKGFYPSDIAVEWESNGQPENNYKTTPPVLDSDGSFALVSKLTVDKSRWQQGNVFSCSVMHEALHNHYTQKSLSLSPG heavy 2: not shown light: GDIQMTQSPSSLSASVGDRVTITCSASQDIGNFLNWYQQKPGKTVKVLIYYTSSLYSGVPSRFSGSGSGTDYTLTISSLQPEDFATYYCQQYSKLPLTFGQGTKLELKRTVAAPSVFIFPPSDEQLKSGTASVVCLLNNFYPREAKVQWKVDNALQSGNSQESVTEQDSKDSTYSLSSTLTLSKADYEKHKVYACEVTHQGLSSPVTKSFNRGEC		1.98	
v18993 (lifastuzumab), reference anti-NaPi2b antibody (antibody, human IgG1, kappa) heavy 1: GEVQLVESGGGLVQPGGSLRLSCAASGFSFSDFAMSWVRQAPGKGLEWVATIGRVAFHTYYPDSMKGRFTISRDNSKNTLYLQMNSLRAEDTAVYYCARHRGFDVGHFDFWGQGTLVTVSSASTKGPSVFPLAPSSKSTSGGTAALGCLVKDYFPEPVTVSWNSGALTSGVHTFPAVLQSSGLYSLSSVVTVPSSSLGTQTYICNVNHKPSNTKVDKKVEPKSCDKTHTCPPCPAPELLGGPSVFLFPPKPKDTLMISRTPEVTCVVVDVSHEDPEVKFNWYVDGVEVHNAKTKPREEQYNSTYRVVSVLTVLHQDWLNGKEYKCKVSNKALPAPIEKTISKAKGQPREPQVYVYPPSRDELTKNQVSLTCLVKGFYPSDIAVEWESNGQPENNYKTTPPVLDSDGSFALVSKLTVDKSRWQQGNVFSCSVMHEALHNHYTQKSLSLSPG heavy 2: not shown light: GDIQMTQSPSSLSASVGDRVTITCRSSETLVHSSGNTYLEWYQQKPGKAPKLLIYRVSNRFSGVPSRFSGSGSGTDFTLTISSLQPEDFATYYCFQGSFNPLTFGQGTKVEIKRTVAAPSVFIFPPSDEQLKSGTASVVCLLNNFYPREAKVQWKVDNALQSGNSQESVTEQDSKDSTYSLSSTLTLSKADYEKHKVYACEVTHQGLSSPVTKSFNRGEC	~5	1.22	EC50 (read off the curve) [1]: ~1 nM
